Reference: patent US20190076400A1 (PROTAGONIST THERAPEUTICS, published 2019)
Read-outs that look alike come from different tables or passages of the source. Square brackets hold non-standard residues; d marks the D form. Ends that are not written are not given here. NMeW = CN[C@@H](Cc1c[nH]c2ccccc12)C(=O)O; Dmt = Cc1cc(O)cc(C)c1C[C@H](N)C(=O)O; NMeY = CN[C@@H](Cc1ccc(O)cc1)C(=O)O; NMeCha = CN[C@@H](CC1CCCCC1)C(=O)O; NMeF = CN[C@@H](Cc1ccccc1)C(=O)O; NMeI = CC[C@H](C)[C@H](NC)C(=O)O; NMePhg = CN[C@H](C(=O)O)c1ccccc1; hPhe = N[C@@H](CCc1ccccc1)C(=O)O; β3hF = N[C@H](CC(=O)O)Cc1ccccc1; NMeL = CN[C@@H](CC(C)C)C(=O)O; NMeNle = CCCC[C@H](NC)C(=O)O; NMeNva = CCC[C@H](NC)C(=O)O; NMeV = CN[C@H](C(=O)O)C(C)C; NMeA = CN[C@@H](C)C(=O)O; Nle = CCCC[C@H](N)C(=O)O; Sar = CNCC(=O)O

Assays:
Experiment in all cases: cell-based or functional assay
[1] = target: T1, µ-opioid receptor (MOR), Human-ORPM1 (human, UniProt P35372 1-400)
[2] = target: T2, δ-opioid receptor (DOR), Human-ORPD1 (human, UniProt P41143 1-372)
[3] = target: T1, µ-opioid receptor (MOR), Human-ORPM1; remark: listed apart in the source
[4] = target: T2, δ-opioid receptor (DOR), Human-ORPD1; remark: listed apart in the source
[5] = target: T1, µ-opioid receptor (MOR), Human-ORPM1; remark: listed apart in the source
[6] = target: T2, δ-opioid receptor (DOR), Human-ORPD1; remark: listed apart in the source
[7] = target: T1, µ-opioid receptor (MOR), Human-ORPM1; remark: listed apart in the source
[8] = target: T2, δ-opioid receptor (DOR), Human-ORPD1; remark: listed apart in the source

T1 sequence (P35372 whole entry): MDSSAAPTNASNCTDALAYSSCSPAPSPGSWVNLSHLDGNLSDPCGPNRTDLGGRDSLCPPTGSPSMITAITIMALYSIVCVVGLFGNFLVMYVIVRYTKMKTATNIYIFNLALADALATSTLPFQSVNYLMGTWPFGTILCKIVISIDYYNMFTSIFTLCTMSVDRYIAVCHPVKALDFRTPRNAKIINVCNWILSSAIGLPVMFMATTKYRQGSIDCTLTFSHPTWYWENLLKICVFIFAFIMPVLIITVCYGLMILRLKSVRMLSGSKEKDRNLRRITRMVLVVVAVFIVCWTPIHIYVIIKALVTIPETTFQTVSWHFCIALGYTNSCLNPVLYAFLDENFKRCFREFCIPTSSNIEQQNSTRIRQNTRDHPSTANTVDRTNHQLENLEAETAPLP
T2 sequence (P41143 whole entry, stated change not applied): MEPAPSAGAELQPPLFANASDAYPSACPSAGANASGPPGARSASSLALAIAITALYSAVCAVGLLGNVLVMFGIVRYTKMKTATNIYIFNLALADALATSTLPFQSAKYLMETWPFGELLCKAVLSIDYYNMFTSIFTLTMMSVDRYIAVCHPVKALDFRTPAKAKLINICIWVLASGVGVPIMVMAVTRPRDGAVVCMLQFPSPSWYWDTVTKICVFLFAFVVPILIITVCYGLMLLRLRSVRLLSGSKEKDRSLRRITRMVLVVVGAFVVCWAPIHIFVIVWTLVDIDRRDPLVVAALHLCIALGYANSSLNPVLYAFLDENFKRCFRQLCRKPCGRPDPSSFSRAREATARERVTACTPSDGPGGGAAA

Binder	MOR EC50 [5]	DOR EC50 [6]	also measured
H-[Dmt][dA]A[β3hF][Sar]-NH2 (SMILES Cc1cc(O)cc(C)c1C[C@H](N)C(=O)N[C@H](C)C(=O)N[C@@H](C)C(=O)N[C@H](CC(=O)N(C)CC(N)=O)Cc1ccccc1) [H-DMT-a-Ala-bhF-Sar-NH2]			MOR EC50 [1]: ≤ 1 nM; DOR EC50 [2]: ≤ 1 nM; MOR cAMP (EC50 nM) [3]: ≤ 1 nM; DOR cAMP (EC50 nM) [4]: ≤ 1 nM
H-[Dmt][dD]G[β3hF][NMeL]-OH (SMILES Cc1cc(O)cc(C)c1C[C@H](N)C(=O)N[C@H](CC(=O)O)C(=O)NCC(=O)N[C@H](CC(=O)N(C)[C@@H](CC(C)C)C(=O)O)Cc1ccccc1) [H-DMT-(D)Asp-G-bhF-N(Me)-Leu-OH]	≤ 1 nM	≤ 1 nM	
H-[Dmt][dD]G[β3hF][NMeA]-OH (SMILES Cc1cc(O)cc(C)c1C[C@H](N)C(=O)N[C@H](CC(=O)O)C(=O)NCC(=O)N[C@H](CC(=O)N(C)[C@@H](C)C(=O)O)Cc1ccccc1) [H-DMT-(D)Asp-G-bhF-N(Me)-Ala-OH]	≤ 1 nM	≤ 1 nM	
H-[Dmt][dD]G[β3hF][NMeW]-OH (SMILES Cc1cc(O)cc(C)c1C[C@H](N)C(=O)N[C@H](CC(=O)O)C(=O)NCC(=O)N[C@H](CC(=O)N(C)[C@@H](Cc1c[nH]c2ccccc12)C(=O)O)Cc1ccccc1) [H-DMT-(D)Asp-G-bhF-N(Me)-Trp-OH]	≤ 1 nM	≤ 1 nM	
H-[Dmt][dD]G[β3hF][NMeI]-OH (SMILES CC[C@H](C)[C@@H](C(=O)O)N(C)C(=O)C[C@H](Cc1ccccc1)NC(=O)CNC(=O)[C@@H](CC(=O)O)NC(=O)[C@@H](N)Cc1c(C)cc(O)cc1C) [H-DMT-(D)Asp-G-bhF-N(Me)-Ile-OH]	≤ 1 nM	≤ 1 nM	
H-[Dmt][dD]G[β3hF][NMeV]-OH (SMILES Cc1cc(O)cc(C)c1C[C@H](N)C(=O)N[C@H](CC(=O)O)C(=O)NCC(=O)N[C@H](CC(=O)N(C)[C@H](C(=O)O)C(C)C)Cc1ccccc1) [H-DMT-(D)Asp-G-bhF-N(Me)-Val-OH]	≤ 1 nM	≤ 1 nM	
H-[Dmt][dD]G[β3hF][NMeNva]-OH (SMILES CCC[C@@H](C(=O)O)N(C)C(=O)C[C@H](Cc1ccccc1)NC(=O)CNC(=O)[C@@H](CC(=O)O)NC(=O)[C@@H](N)Cc1c(C)cc(O)cc1C) [H-DMT-(D)Asp-G-bhF-N(Me)-Nva-OH]	≤ 1 nM	≤ 1 nM	
H-[Dmt][dD]G[β3hF][NMeCha]-OH (SMILES Cc1cc(O)cc(C)c1C[C@H](N)C(=O)N[C@H](CC(=O)O)C(=O)NCC(=O)N[C@H](CC(=O)N(C)[C@@H](CC1CCCCC1)C(=O)O)Cc1ccccc1) [H-DMT-(D)Asp-G-bhF-N(Me)-Cha-OH]	≤ 1 nM	≤ 1 nM	
H-[Dmt][dD]G[β3hF][NMePhg]-OH (SMILES Cc1cc(O)cc(C)c1C[C@H](N)C(=O)N[C@H](CC(=O)O)C(=O)NCC(=O)N[C@H](CC(=O)N(C)[C@H](C(=O)O)c1ccccc1)Cc1ccccc1) [H-DMT-(D)Asp-G-bhF-N(Me)-Phg-OH]	≤ 1 nM	≤ 1 nM	
H-[Dmt][dD]G[β3hF][NMeF]-OH (SMILES Cc1cc(O)cc(C)c1C[C@H](N)C(=O)N[C@H](CC(=O)O)C(=O)NCC(=O)N[C@H](CC(=O)N(C)[C@@H](Cc1ccccc1)C(=O)O)Cc1ccccc1) [H-DMT-(D)Asp-G-bhF-N(Me)-Phe-OH]	≤ 1 nM	≤ 1 nM	
H-[Dmt][dD]G[β3hF][NMeNle]-OH [H-DMT-(D)Asp-G-bhF-N(Me)-Nle-OH]	≤ 1 nM	≤ 1 nM	
H-[Dmt][dD]G[β3hF]G-NH2 (SMILES Cc1cc(O)cc(C)c1C[C@H](N)C(=O)N[C@H](CC(=O)O)C(=O)NCC(=O)N[C@H](CC(=O)NCC(N)=O)Cc1ccccc1) [H-DMT-(D)Asp-G-bhF-Gly-NH2]	≤ 1 nM	≤ 1 nM	
H-[Dmt][dD]G[β3hF][NMeY]-OH (SMILES Cc1cc(O)cc(C)c1C[C@H](N)C(=O)N[C@H](CC(=O)O)C(=O)NCC(=O)N[C@H](CC(=O)N(C)[C@@H](Cc1ccc(O)cc1)C(=O)O)Cc1ccccc1) [H-DMT-(D)Asp-G-bhF-N(Me)-Tyr-OH]	≤ 1 nM	≤ 1 nM	
H-[Dmt][dT]G[β3hF][NMeI]-OH (SMILES CC[C@H](C)[C@@H](C(=O)O)N(C)C(=O)C[C@H](Cc1ccccc1)NC(=O)CNC(=O)[C@H](NC(=O)[C@@H](N)Cc1c(C)cc(O)cc1C)[C@H](C)O) [H-DMT-(D)Thr-G-bhF-N(Me)-Ile-OH]	≤ 1 nM	≤ 1 nM	
H-[Dmt][dT]G[β3hF][NMeA]-OH (SMILES Cc1cc(O)cc(C)c1C[C@H](N)C(=O)N[C@@H](C(=O)NCC(=O)N[C@H](CC(=O)N(C)[C@@H](C)C(=O)O)Cc1ccccc1)[C@H](C)O) [H-DMT-(D)Thr-G-bhF-N(Me)-Ala-OH]	≤ 1 nM	≤ 1 nM	
H-[Dmt][dE]G[β3hF][NMeA]-OH (SMILES Cc1cc(O)cc(C)c1C[C@H](N)C(=O)N[C@H](CCC(=O)O)C(=O)NCC(=O)N[C@H](CC(=O)N(C)[C@@H](C)C(=O)O)Cc1ccccc1) [H-DMT-(D)Glu-G-bhF-N(Me)-Ala-OH]	≤ 10 nM	≤ 1 nM	
H-[Dmt][dE]G[β3hF][NMeI]-OH (SMILES CC[C@H](C)[C@@H](C(=O)O)N(C)C(=O)C[C@H](Cc1ccccc1)NC(=O)CNC(=O)[C@@H](CCC(=O)O)NC(=O)[C@@H](N)Cc1c(C)cc(O)cc1C) [H-DMT-(D)Glu-G-bhF-N(Me)-Ile-OH]	≤ 10 nM	≤ 1 nM	
H-[Dmt][dE]G[β3hF][Sar]-NH2 (SMILES Cc1cc(O)cc(C)c1C[C@H](N)C(=O)N[C@H](CCC(=O)O)C(=O)NCC(=O)N[C@H](CC(=O)N(C)CC(N)=O)Cc1ccccc1) [H-DMT-(D)Glu-G-bhF-Sar-NH2]	≤ 1 nM	≤ 10 nM	
H-[Dmt][dA]G[β3hF][Sar]K (also: homodimer: two monomers joined at X5 through a lysine linker (Dimer A)) [[DMT-((D)Ala)-Gly-(β-homoPhe)-(Sar)]2-Lys]			MOR EC50 [7]: ≤ 1 nM; DOR EC50 [8]: ≤ 1 nM
H-[Dmt][dA]G[β3hF][NMeA]K (also: homodimer: two monomers joined at X5 through a lysine linker (Dimer A)) [[DMT-((D)Ala)-Gly-(β-homoPhe)-(NMe-Ala)]2-Lys]			MOR EC50 [7]: ≤ 1 nM; DOR EC50 [8]: ≤ 1 nM
H-[Dmt][dA]G[β3hF][NMeI]K (also: homodimer: two monomers joined at X5 through a lysine linker (Dimer A)) [[DMT-((D)Ala)-Gly-(β-homoPhe)-(NMe-Ile)]2-Lys]			MOR EC50 [7]: ≤ 10 nM; DOR EC50 [8]: ≤ 10 nM
H-[Dmt][dA]G[β3hF][Sar][dK] (also: homodimer: two monomers joined at X5 through a D-lysine linker (Dimer A)) [[DMT-((D)Ala)-Gly-(β-homoPhe)-(Sar)]2-(D-Lys)]			MOR EC50 [7]: ≤ 10 nM; DOR EC50 [8]: ≤ 10 nM
H-[Dmt][dA]G[β3hF][Sar][dK] (not fully specified (C-terminus); printed as [DMT-((D)Ala)-Gly-(β-homoPhe)-(Sar)-(D-Lys)]2-DIG; also: homodimer: the two D-Lys joined through DIG linker (Dimer C)) [[DMT-((D)Ala)-Gly-(β-homoPhe)-(Sar)-(D-Lys)]2-DIG]			MOR EC50 [7]: ≤ 10 nM; DOR EC50 [8]: ≤ 10 nM
H-[Dmt][dR]HK-NH2 (SMILES Cc1cc(O)cc(C)c1C[C@H](N)C(=O)N[C@H](CCCNC(=N)N)C(=O)N[C@@H](Cc1c[nH]cn1)C(=O)N[C@@H](CCCCN)C(N)=O) [H-DMT-r-H-K-NH2]			MOR EC50 [1]: ≤ 50 nM; DOR EC50 [2]: > 200 nM
H-[Dmt][dA][hPhe][Nle]-NH2 (SMILES CCCC[C@H](NC(=O)[C@H](CCc1ccccc1)NC(=O)[C@@H](C)NC(=O)[C@@H](N)Cc1c(C)cc(O)cc1C)C(N)=O) [H-DMT-a-hF-Nle-NH2]			MOR EC50 [1]: ≤ 1 nM; DOR EC50 [2]: ≤ 1 nM
